The record followed here is the array DNA melting data of Ke et al..

The nature of the data set: melting temperature; UV melt of duplexes.

As usually defined, the Tm is the temperature at the midpoint of the melting transition. Consider “AGTCTGGTCTGGATCTGAGAACTTCAGGCT+AGCCTGAAGTTCTCAGATCCAGACCAGACT ((((((((((((((((((((((((((((((+))))))))))))))))))))))))))))))”, for which the melting temperature (Tm) reads like this: (sodium 0.07 M, strand 2 µM) 66.3 °C; (sodium 0.12 M, strand 2 µM) 70.4 °C; (sodium 0.22 M, strand 2 µM) 74.5 °C; (sodium 0.62 M, strand 2 µM) 78.8 °C; (sodium 1.02 M, strand 2 µM) 80.6 °C.

On to “ACAGCGAATGGACCTACGTGGCCTT+AAGGCCACGTAGGTCCATTCGCTGT (((((((((((((((((((((((((+)))))))))))))))))))))))))”, for which the Tm stood at 68.1 °C (sodium 0.07 M, strand 2 µM); 72.1 °C (sodium 0.12 M, strand 2 µM); 76 °C (sodium 0.22 M, strand 2 µM); 79.4 °C (sodium 0.62 M, strand 2 µM); 81 °C (sodium 1.02 M, strand 2 µM).

Consider “AAAAAAAGCTTTTTTT+AAAAAAAGCTTTTTTT ((((((((((((((((+))))))))))))))))”, for which, under “sodium 0.12 M, strand 5 µM”, the melting temperature (Tm) came out at 44 °C.

Regarding “AAAGTACATCAACATAGAGAATTGCATTTC+GAAATGCAATTCTCTATGTTGATGTACTTT ((((((((((((((((((((((((((((((+))))))))))))))))))))))))))))))”, the Tm (sodium 0.07 M, strand 2 µM) turned out to be 58.3 °C; the Tm (sodium 0.12 M, strand 2 µM) was 61.9 °C; the midpoint of thermal melting (Tm) (sodium 0.22 M, strand 2 µM) came out at 66.1 °C; the Tm (sodium 0.62 M, strand 2 µM) amounted to 71.3 °C; the Tm (sodium 1.02 M, strand 2 µM) was 73.2 °C.

With “ACTGATTAGGATCCATATGTCA+TGACATATGGATCCTAATCAGT ((((((((((((((((((((((+))))))))))))))))))))))”, the Tm (sodium 0.12 M, strand 5 µM) is 58.3 °C.

Turning to “CGCAAAAAAAAAACGC+GCGTTTTTTTTTTGCG ((((((((((((((((+))))))))))))))))”, under “sodium 0.1 M, strand 4 µM”, the melting temperature (Tm) turned out to be 54.1 °C.

With “AACGCGCGTGAATTCTGGCCGCAA+TTGCGGCCAGAATTCACGCGCGTT ((((((((((((((((((((((((+))))))))))))))))))))))))”, the midpoint of thermal melting (Tm) (sodium 0.12 M, strand 6 µM) was 75.8 °C.

Regarding “GCTAAAAAGAGAGAGAGATCG+CGATCTCTCTCTCTTTTTAGC (((((((((((((((((((((+)))))))))))))))))))))”, the Tm (sodium 1 M, strand 3 µM) is 69 °C.

As to “GTCCACGCCCGGTGCGACGG+CCGTCGCACCGGGCGTGGAC ((((((((((((((((((((+))))))))))))))))))))”, the Tm is, setting by setting: (sodium 0.07 M, strand 2 µM) 70.9 °C; (sodium 0.12 M, strand 2 µM) 73.9 °C; (sodium 0.22 M, strand 2 µM) 77.3 °C; (sodium 0.62 M, strand 2 µM) 79.8 °C; (sodium 1.02 M, strand 2 µM) 81.1 °C.

Turning to “GTAGAATTCTTTTCCTTCTAGATCG+CGATCTAGAAGGAAAAGAATTCTAC (((((((((((((((((((((((((+)))))))))))))))))))))))))”, under “sodium 0.1 M, strand 1 µM”, the melting temperature (Tm) was 62 °C.

On to “ATATATATAGCTTTTTTTTT+AAAAAAAAAGCTATATATAT ((((((((((((((((((((+))))))))))))))))))))”, for which, under “sodium 0.12 M, strand 6 µM”, the melting temperature (Tm) came out at 44.3 °C.

Take “CGGGACCAACTAAAGGAAAT+ATTTCCTTTAGTTGGTCCCG ((((((((((((((((((((+))))))))))))))))))))”: the Tm (sodium 0.07 M, strand 2 µM) is 53.7 °C; the melting temperature (Tm) (sodium 0.12 M, strand 2 µM) was 57.7 °C; the midpoint of thermal melting (Tm) (sodium 0.22 M, strand 2 µM) was determined as 61.7 °C; the melting temperature (Tm) (sodium 0.62 M, strand 2 µM) is 66.7 °C; the Tm (sodium 1.02 M, strand 2 µM) is 68.5 °C.

Regarding “ACCGACGACGCTGATCCGAT+ATCGGATCAGCGTCGTCGGT ((((((((((((((((((((+))))))))))))))))))))”, the Tm is, setting by setting: (sodium 0.07 M, strand 2 µM) 66 °C; (sodium 0.12 M, strand 2 µM) 69.1 °C; (sodium 0.22 M, strand 2 µM) 72.6 °C; (sodium 0.62 M, strand 2 µM) 76.8 °C; (sodium 1.02 M, strand 2 µM) 77.3 °C.

Take “AAAAAAAAGAATTCTTTTTTTT+AAAAAAAAGAATTCTTTTTTTT ((((((((((((((((((((((+))))))))))))))))))))))”: the midpoint of thermal melting (Tm) (sodium 0.12 M, strand 6 µM) stood at 49.9 °C.

“GATATAGCAAAATTCTAAGTTAATA+TATTAACTTAGAATTTTGCTATATC (((((((((((((((((((((((((+)))))))))))))))))))))))))”: the midpoint of thermal melting (Tm) came out at 49.1 °C (sodium 0.07 M, strand 2 µM); 53.5 °C (sodium 0.12 M, strand 2 µM); 57.7 °C (sodium 0.22 M, strand 2 µM); 63.3 °C (sodium 0.62 M, strand 2 µM); 66.1 °C (sodium 1.02 M, strand 2 µM).
